What all share (experiment): ITC; GB1-peptide or GB1-SF1 construct in the cell, PRPF40A WW12 in the syringe (as shown in Supplementary Figures 7 and 16A); 25 °C, 20 mM sodium phosphate pH 6.5, 100 mM NaCl; one-site binding model; at least duplicates; affinities apparent
Common to all, as to conditions: both partners purified
(Isothermal titration calorimetry measures the heat released or taken up as one component is titrated into another.)

Test [1] has as its target T1, GB1-SF1 Pro A (residues 410-468) (UniProt Q15637 410-468).
T1 construct: splicing factor 1 (SF1), residues 410-468 of the proline-rich C-terminal region; His6-GB1-TEV site cassette of the pET24 vector, not cleaved; source: E. coli BL21(DE3), purified (Ni-NTA, SEC); not shown: GB1, N-terminal, kept
T1 sequence (looked up): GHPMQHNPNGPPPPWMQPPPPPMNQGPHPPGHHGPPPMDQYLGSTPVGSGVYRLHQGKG

Test [2] deals with T2, GB1-SF1 Pro B (residues 468-539) (UniProt Q15637 468-539).
T2 construct: splicing factor 1 (SF1), residues 468-539 of the proline-rich C-terminal region; His6-GB1-TEV site cassette of the pET24 vector, not cleaved; source: E. coli BL21(DE3), purified (Ni-NTA, SEC); not shown: GB1, N-terminal, kept
T2 sequence (looked up): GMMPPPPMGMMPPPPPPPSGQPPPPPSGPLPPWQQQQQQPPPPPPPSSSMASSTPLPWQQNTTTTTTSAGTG

For test [3], the target named is T3, GB1-SF1 Pro C (residues 539-594) (UniProt Q15637 539-594).
T3 construct: splicing factor 1 (SF1), residues 539-594 of the proline-rich C-terminal region (holds the WWbs motif 575-590); His6-GB1-TEV site cassette of the pET24 vector, not cleaved; source: E. coli BL21(DE3), purified (Ni-NTA, SEC); not shown: GB1, N-terminal, kept
T3 sequence (looked up): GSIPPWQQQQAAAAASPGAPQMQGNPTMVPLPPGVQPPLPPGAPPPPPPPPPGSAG

Test [4] addresses T4, GB1-SF1 Pro D (residues 594-639) (UniProt Q15637 594-639).
T4 construct: splicing factor 1 (SF1), residues 594-639 of the proline-rich C-terminal region; His6-GB1-TEV site cassette of the pET24 vector, not cleaved; source: E. coli BL21(DE3), purified (Ni-NTA, SEC); not shown: GB1, N-terminal, kept
T4 chain (looked up): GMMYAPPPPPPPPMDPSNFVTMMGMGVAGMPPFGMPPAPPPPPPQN

Test [5] deals with T5, GB1-polyproline peptide P29.
T5 chain: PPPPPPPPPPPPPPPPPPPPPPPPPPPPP

Test [6] has as its target T6, GB1-SF1 16-mer peptide 565-580.
T6 chain: TMVPLPPGVQPPLPPG

Test [7] concerns the target T7, GB1-polyproline peptide P10.
T7 chain: PPPPPPPPPP

For test [8], the target named is T8, GB1-polyproline peptide P13.
T8 chain: PPPPPPPPPPPPP

The target of test [9] is T9, GB1-polyproline peptide P16.
T9 chain: PPPPPPPPPPPPPPPP

Test [10] deals with T10, GB1-polyproline peptide P19.
T10 chain: PPPPPPPPPPPPPPPPPPP

Test [11] addresses T11, GB1-polyproline peptide P22.
T11 chain: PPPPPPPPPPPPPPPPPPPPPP

Test [12] has as its target T12, GB1-polyproline peptide P25.
T12 chain: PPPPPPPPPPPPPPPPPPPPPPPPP

B1: PRPF40A WW12 (tandem WW domains, residues 141-236) (domain or fragment, human, UniProt O75400 141-236, looked up)
chain: GAKSMWTEHKSPDGRTYYYNTETKQSTWEKPDDLKTPAEQLLSKCPWKEYKSDSGKPYYYNSQTKESRWAKPKELEDLEGYQNTIVAGSLITKSNL
notes: A few vector residues probably remain at the N-terminus after TEV cleavage (pETM11, NcoI site); 15N-labelled in the NMR experiments; also called PRPF40A WW tandem; WW12 wt; source: E. coli BL21(DE3), purified (Ni-NTA, TEV digestion, reverse Ni-NTA, SEC); not shown: His6, N-terminal, cleaved
Consider B1, for which the stoichiometry N (as a rule, a count of units in the complex or per binding partner) in [1] was determined as 0.99 ± 0.17 sites; in test [2], 1.15 ± 0.15 sites; in test [3], 0.88 ± 0.01 sites; in test [4] it was 0.87 ± 0.02 sites; in [5] it was 2.47 ± 0.09 sites; in test [6], 1.06 ± 0.11 sites. Also, the “stoichiometry N” value stood at 0.89 ± 0.11 sites in test [7]; 0.78 ± 0.07 sites in test [8]; 0.88 ± 0.08 sites in test [9]; 1.1 ± 0.04 sites in [10]; 1.39 ± 0.03 sites in [11]; 2.3 ± 0.09 sites in test [12].

The values are drawn from PMC11079029, “Intramolecular autoinhibition regulates the selectivity of PRPF40A tandem WW domains for proline-rich motifs” (Nature Communications, 2024).
